Test results taken from patent US12458681B2, “Compositions and method for treating acute radiation syndrome” (Prince Biotech, LLC, priority 2014, dated 2025).

Experiments:
[1] = tested on: NOD mice; conditions: adoptive transfer and spontaneous disease, long term; cited from earlier work
[2] = molecular target: Insulin-degrading enzyme (IDE) (Homo sapiens, UniProt P14735); experiment: Differential Shift Assay of PIF mutants; format: binding
Description: Thus 2 putative mutants were conceived, mutant-1: P6→E6, and mutant-3:[…]; c. Table represent the mutants that were considered, of them 2 were synthesized based on their putative availability as options for ligand-receptor disruptors.

Sequence | diabetes development [1] | binding to IDE [2]
GRVDPSNKSMPKDIA [PTFscr] | no effect | 
MVRIKEGSANKPSDD [mut1] |  | bind
MVRGKPGSANKPSDD [mut3] |  | bind
